For 3 substances, stoichiometry N results are on record in paper doi:10.1101/460097.

For assay [1], the target named is pig (Sus scrofa) PCDH15 EC10-MAD12 (pig (Sus scrofa)). The assay is described as follows: AUC.
Assay [2] has the same target. The assay is described as follows: SEC-SAXS.
The target is the same in assay [3]. The experiment in a line: SEC-MALS. (In gel filtration, larger molecules generally elute earlier.)
Assay [4] has as its target mouse (Mus musculus) PCDH15 EC10-MAD12, refolded from bacteria (mouse (Mus musculus)). The assay is described as follows: SEC-SAXS.
The target is the same in assay [5]. The experiment in a line: SEC-MALS.
Assay [6] concerns the target mouse (Mus musculus) PCDH15 EC10-MAD12 produced in mammalian cells (mouse (Mus musculus)). The experiment in a line: AUC.
Assay [7] shares this target. The assay is described as follows: SEC-MALS.

One may read the stoichiometry N as the number of molecules, sites or subunits per partner or assembly. Consider “pig (Sus scrofa) PCDH15 EC10-MAD12 (domain or fragment)”, for which the stoichiometry N in assay [1], in assay [2] and in assay [3] was 2 each time.
For “mouse (Mus musculus) PCDH15 EC10-MAD12, refolded from bacteria (domain or fragment)”, the stoichiometry N in assay [4] and in assay [5] was 2 throughout.
For the substance “mouse (Mus musculus) PCDH15 EC10-MAD12 produced in mammalian cells (domain or fragment)”, the stoichiometry N in assay [6] and in assay [7] was 2 in each case.
